Target: human somatostatin receptor 2, Tango construct (human) (UniProt P30874)
Sequence (P30874 whole entry): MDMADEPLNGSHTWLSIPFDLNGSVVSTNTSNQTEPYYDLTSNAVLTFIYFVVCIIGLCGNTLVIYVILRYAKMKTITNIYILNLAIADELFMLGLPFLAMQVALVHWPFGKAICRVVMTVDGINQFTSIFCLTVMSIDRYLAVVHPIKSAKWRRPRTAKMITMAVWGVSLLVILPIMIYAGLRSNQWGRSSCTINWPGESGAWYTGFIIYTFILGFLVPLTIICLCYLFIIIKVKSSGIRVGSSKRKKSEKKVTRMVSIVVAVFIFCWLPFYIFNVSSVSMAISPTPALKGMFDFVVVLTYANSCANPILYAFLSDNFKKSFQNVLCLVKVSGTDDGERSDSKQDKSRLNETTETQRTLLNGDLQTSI

## octreotide (peptide)
  EC50, PRESTO-Tango β-arrestin recruitment assay: 0.9 nM

From PMC11336141
